Source: PMC3288673

Target: T1, Rev-Erbα (UniProt P20393 1-614)
T1 sequence: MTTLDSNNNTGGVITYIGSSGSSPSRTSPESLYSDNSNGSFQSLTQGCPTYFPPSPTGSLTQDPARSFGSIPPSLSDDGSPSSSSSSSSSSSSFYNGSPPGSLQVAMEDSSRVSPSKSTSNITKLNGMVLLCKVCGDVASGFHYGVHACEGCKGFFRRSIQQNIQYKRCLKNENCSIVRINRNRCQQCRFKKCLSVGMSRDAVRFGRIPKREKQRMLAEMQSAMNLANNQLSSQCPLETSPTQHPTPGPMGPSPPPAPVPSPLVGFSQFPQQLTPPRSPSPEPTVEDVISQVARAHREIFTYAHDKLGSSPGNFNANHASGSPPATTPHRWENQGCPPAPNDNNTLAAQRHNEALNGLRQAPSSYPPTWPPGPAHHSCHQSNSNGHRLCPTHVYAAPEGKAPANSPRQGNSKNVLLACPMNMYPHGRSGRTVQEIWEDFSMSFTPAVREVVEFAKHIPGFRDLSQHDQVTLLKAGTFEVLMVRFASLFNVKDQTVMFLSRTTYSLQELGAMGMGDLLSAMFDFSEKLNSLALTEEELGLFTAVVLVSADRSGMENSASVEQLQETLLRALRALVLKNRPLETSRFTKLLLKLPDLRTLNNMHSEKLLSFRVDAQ
Assay: EMSA

B1: RevDR2 (dsDNA)
DNA 1: AGCTCCAACTAGGTCACTAGGTCAAAGGGA
DNA 2: TCGATCCCTTTGACCTAGTGACCTAGTTGG
binding result: binds
